{"source": "paper PMC314469", "about": "“Protein Interaction Networks by Proteome Peptide Scanning” (PLoS Biology, 2004)", "binders": {"B1": {"name": "YGR083C 349-362 (peptide)", "chain": "QEISLIDPSTPDKA"}, "B2": {"name": "YDL233W 197-210 (peptide)", "chain": "REFEFIIPVFPVIS"}, "B3": {"name": "YBL088C 912-925 (peptide)", "chain": "RPQWLSYPEQPLNS"}, "B4": {"name": "YDR236C 34-47 (peptide)", "chain": "REVDLPIPAQPGPP"}, "B5": {"name": "YIL037C 447-460 (peptide)", "chain": "RLTNFEVPSLPTFH"}, "B6": {"name": "YJR119C 479-492 (peptide)", "chain": "QLVTLISPYDPNFK"}, "B7": {"name": "YIL109C 25-38 (peptide)", "chain": "QPAQFMPPQDPAAA"}, "B8": {"name": "YOR235W 5-18 (peptide)", "chain": "RPSKFFHPPIPHIP"}, "B9": {"name": "YDL195W 847-860 (peptide)", "chain": "RLNSFAPPPNPYAT"}, "B10": {"name": "YLR337C 421-434 (peptide)", "chain": "PLAPLPPPPPPSVA"}, "B11": {"name": "YCR033W 1026-1039 (peptide)", "chain": "PLTTLPPPRLPSIQ"}, "B12": {"name": "YKR077W 284-297 (peptide)", "chain": "QASMLRRPSLPHID"}, "B13": {"name": "YDL205C 162-175 (peptide)", "chain": "RLQKLDDPKSPYQS"}, "B14": {"name": "YLR337C 659-672 (peptide)", "chain": "PLPTFSAPSLPQQS"}, "B15": {"name": "YBR212W 375-388 (peptide)", "chain": "QLRSLFKPFGPILN"}, "B16": {"name": "YFL006W 181-194 (peptide)", "chain": "SAFPYVFPLPPWIP"}, "B17": {"name": "YMR002W 21-34 (peptide)", "chain": "SASTMAAPVHPQQQ"}, "B18": {"name": "YIL005W 29-42 (peptide)", "chain": "PPEGFPEPLNPTNF"}, "B19": {"name": "YGL125W 205-218 (peptide)", "chain": "RAAGMDVPIIPGIM"}, "B20": {"name": "YBR212W 12-25 (peptide)", "chain": "QENPYIIPLPPSST"}, "B21": {"name": "YAL017W 90-103 (peptide)", "chain": "PPLDFEQPRLPSTA"}, "B22": {"name": "YMR156C 129-142 (peptide)", "chain": "RLWLYAAPKRPKTF"}, "B23": {"name": "YGL014W 93-106 (peptide)", "chain": "PPPDFNDPTAPLSS"}, "B24": {"name": "YGL156W 915-928 (peptide)", "chain": "RLSLLRSPKAPDAH"}, "B25": {"name": "YOR037W 215-228 (peptide)", "chain": "PFIDYEFPHLPNEL"}, "B26": {"name": "YGL065C 374-387 (peptide)", "chain": "SATGWLKPAVPIQW"}, "B27": {"name": "YFL011W 32-45 (peptide)", "chain": "REASLDIPYKPIIA"}, "B28": {"name": "YBR172C 147-160 (peptide)", "chain": "PFSSMKEPFIPQSS"}, "B29": {"name": "YBL035C 102-115 (peptide)", "chain": "PLFGLSIPKTPTLK"}, "B30": {"name": "YMR148W 78-91 (peptide)", "chain": "QPAQLQEPQEPLST"}, "B31": {"name": "YKL129C 1112-1125 (peptide)", "chain": "PPPPMGQPKDPKFE"}, "B32": {"name": "YOR197W 87-100 (peptide)", "chain": "PPMAYNRPVYPPPQ"}, "B33": {"name": "YPL101W 254-267 (peptide)", "chain": "SELTFIAPTQPVST"}, "B34": {"name": "YNL278W 921-934 (peptide)", "chain": "QPQAYHLPGNPYST"}, "B35": {"name": "YCL029C 108-121 (peptide)", "chain": "QFSPMDDPKSPTPM"}, "B36": {"name": "YNL134C 307-320 (peptide)", "chain": "PFGTFTLPADPEYK"}, "B37": {"name": "YIL151C 523-536 (peptide)", "chain": "QLIGFGNPKNPFAL"}, "B38": {"name": "YLR399C 121-134 (peptide)", "chain": "QELPMEVPKEPAPA"}, "B39": {"name": "YER169W 383-396 (peptide)", "chain": "PLNQLPNPAMPLLH"}, "B40": {"name": "YNL271C 1240-1251 (peptide)", "chain": "PPPPPPPPPVPA"}, "B41": {"name": "YIR029W 44-57 (peptide)", "chain": "SAENLIQPTAPIRD"}, "B42": {"name": "YNL124W 379-392 (peptide)", "chain": "QPTNFQYPPPPFGQ"}, "B43": {"name": "YNL124W 356-369 (peptide)", "chain": "SANNYPFPQQPNGM"}, "B44": {"name": "YOR160W 693-706 (peptide)", "chain": "RFHVFSEPILPSVA"}, "B45": {"name": "YJL046W 318-331 (peptide)", "chain": "QFSGLLEPSLPNNM"}, "B46": {"name": "YAR018C 257-270 (peptide)", "chain": "PEVLMDQPYSPLSD"}, "B47": {"name": "YLL018C 454-467 (peptide)", "chain": "PFYTMPDPANPKYS"}, "B48": {"name": "YOR149C 314-327 (peptide)", "chain": "QELRFLVPLVPLLV"}, "B49": {"name": "YBR279W 23-36 (peptide)", "chain": "PPKLLVYPESPETN"}, "B50": {"name": "YOL057W 181-194 (peptide)", "chain": "SAYYLGLPVTPEDM"}, "B51": {"name": "YLR086W 763-776 (peptide)", "chain": "RLFDLVKPKNPKFS"}, "B52": {"name": "YOL082W 127-140 (peptide)", "chain": "REDAHEDPVSPKAG"}, "B53": {"name": "YOR329C 661-674 (peptide)", "chain": "QPQHLPPPPPPRAQ"}, "B54": {"name": "YIL132C 50-63 (peptide)", "chain": "QFQKLVPPTLPENV"}, "B55": {"name": "YDR132C 184-197 (peptide)", "chain": "RPPSHSAPYIPRSS"}, "B56": {"name": "YEL065W 193-206 (peptide)", "chain": "RLLALFIPALPFII"}, "B57": {"name": "YBR289W 73-86 (peptide)", "chain": "PPQTHQSPPPPPQQ"}, "B58": {"name": "YER033C 119-132 (peptide)", "chain": "PPPPLPPPLFPSSS"}}}
{"molecular_target": "T1, Myo5 SH3 (MYO5_YEAST), Q04439", "T1 chain": "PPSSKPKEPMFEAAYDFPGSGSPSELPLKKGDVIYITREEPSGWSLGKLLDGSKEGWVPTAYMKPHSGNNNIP", "test": "SPOT array"}
{"binder": "B1", "normalised SPOT signal, Boehringer light units (BLU); mean over the file's lines of this peptide": 155}
{"binder": "B2", "normalised SPOT signal, Boehringer light units (BLU); mean over the file's lines of this peptide": 163}
{"binder": "B3", "normalised SPOT signal, Boehringer light units (BLU); mean over the file's lines of this peptide": 241}
{"binder": "B4", "normalised SPOT signal, Boehringer light units (BLU); mean over the file's lines of this peptide": 114}
{"binder": "B5", "normalised SPOT signal, Boehringer light units (BLU); mean over the file's lines of this peptide": 319}
{"binder": "B6", "normalised SPOT signal, Boehringer light units (BLU); mean over the file's lines of this peptide": 178}
{"binder": "B7", "normalised SPOT signal, Boehringer light units (BLU); mean over the file's lines of this peptide": 134}
{"binder": "B8", "normalised SPOT signal, Boehringer light units (BLU); mean over the file's lines of this peptide": 777}
{"binder": "B9", "normalised SPOT signal, Boehringer light units (BLU); mean over the file's lines of this peptide": 274}
{"binder": "B10", "normalised SPOT signal, Boehringer light units (BLU); mean over the file's lines of this peptide": 4750}
{"binder": "B11", "normalised SPOT signal, Boehringer light units (BLU); mean over the file's lines of this peptide": 2790}
{"binder": "B12", "normalised SPOT signal, Boehringer light units (BLU); mean over the file's lines of this peptide": 1100}
{"binder": "B13", "normalised SPOT signal, Boehringer light units (BLU); mean over the file's lines of this peptide": 127}
{"binder": "B14", "normalised SPOT signal, Boehringer light units (BLU); mean over the file's lines of this peptide": 47000}
{"binder": "B15", "normalised SPOT signal, Boehringer light units (BLU); mean over the file's lines of this peptide": 370}
{"binder": "B16", "normalised SPOT signal, Boehringer light units (BLU); mean over the file's lines of this peptide": 13000}
{"binder": "B17", "normalised SPOT signal, Boehringer light units (BLU); mean over the file's lines of this peptide": 164}
{"binder": "B18", "normalised SPOT signal, Boehringer light units (BLU); mean over the file's lines of this peptide": 86}
{"binder": "B19", "normalised SPOT signal, Boehringer light units (BLU); mean over the file's lines of this peptide": 98.2}
{"binder": "B20", "normalised SPOT signal, Boehringer light units (BLU); mean over the file's lines of this peptide": 240}
{"binder": "B21", "normalised SPOT signal, Boehringer light units (BLU); mean over the file's lines of this peptide": 192}
{"binder": "B22", "normalised SPOT signal, Boehringer light units (BLU); mean over the file's lines of this peptide": 845}
{"binder": "B23", "normalised SPOT signal, Boehringer light units (BLU); mean over the file's lines of this peptide": 153}
{"binder": "B24", "normalised SPOT signal, Boehringer light units (BLU); mean over the file's lines of this peptide": 442}
{"binder": "B25", "normalised SPOT signal, Boehringer light units (BLU); mean over the file's lines of this peptide": 98.9}
{"binder": "B26", "normalised SPOT signal, Boehringer light units (BLU); mean over the file's lines of this peptide": 94.6}
{"binder": "B27", "normalised SPOT signal, Boehringer light units (BLU); mean over the file's lines of this peptide": 176}
{"binder": "B28", "normalised SPOT signal, Boehringer light units (BLU); mean over the file's lines of this peptide": 411}
{"binder": "B29", "normalised SPOT signal, Boehringer light units (BLU); mean over the file's lines of this peptide": 122}
{"binder": "B30", "normalised SPOT signal, Boehringer light units (BLU); mean over the file's lines of this peptide": 126}
{"binder": "B31", "normalised SPOT signal, Boehringer light units (BLU); mean over the file's lines of this peptide": 248}
{"binder": "B32", "normalised SPOT signal, Boehringer light units (BLU); mean over the file's lines of this peptide": 6720}
{"binder": "B33", "normalised SPOT signal, Boehringer light units (BLU); mean over the file's lines of this peptide": 110}
{"binder": "B34", "normalised SPOT signal, Boehringer light units (BLU); mean over the file's lines of this peptide": 187}
{"binder": "B35", "normalised SPOT signal, Boehringer light units (BLU); mean over the file's lines of this peptide": 121}
{"binder": "B36", "normalised SPOT signal, Boehringer light units (BLU); mean over the file's lines of this peptide": 172}
{"binder": "B37", "normalised SPOT signal, Boehringer light units (BLU); mean over the file's lines of this peptide": 46.1}
{"binder": "B38", "normalised SPOT signal, Boehringer light units (BLU); mean over the file's lines of this peptide": 139}
{"binder": "B39", "normalised SPOT signal, Boehringer light units (BLU); mean over the file's lines of this peptide": 104}
{"binder": "B40", "normalised SPOT signal, Boehringer light units (BLU); mean over the file's lines of this peptide": 95700}
{"binder": "B41", "normalised SPOT signal, Boehringer light units (BLU); mean over the file's lines of this peptide": 56.4}
{"binder": "B42", "normalised SPOT signal, Boehringer light units (BLU); mean over the file's lines of this peptide": 224}
{"binder": "B43", "normalised SPOT signal, Boehringer light units (BLU); mean over the file's lines of this peptide": 79.6}
{"binder": "B44", "normalised SPOT signal, Boehringer light units (BLU); mean over the file's lines of this peptide": 158}
{"binder": "B45", "normalised SPOT signal, Boehringer light units (BLU); mean over the file's lines of this peptide": 84.4}
{"binder": "B46", "normalised SPOT signal, Boehringer light units (BLU); mean over the file's lines of this peptide": 78.7}
{"binder": "B47", "normalised SPOT signal, Boehringer light units (BLU); mean over the file's lines of this peptide": 145}
{"binder": "B48", "normalised SPOT signal, Boehringer light units (BLU); mean over the file's lines of this peptide": 119}
{"binder": "B49", "normalised SPOT signal, Boehringer light units (BLU); mean over the file's lines of this peptide": 91.3}
{"binder": "B50", "normalised SPOT signal, Boehringer light units (BLU); mean over the file's lines of this peptide": 215}
{"binder": "B51", "normalised SPOT signal, Boehringer light units (BLU); mean over the file's lines of this peptide": 441}
{"binder": "B52", "normalised SPOT signal, Boehringer light units (BLU); mean over the file's lines of this peptide": 145}
{"binder": "B53", "normalised SPOT signal, Boehringer light units (BLU); mean over the file's lines of this peptide": 76200}
{"binder": "B54", "normalised SPOT signal, Boehringer light units (BLU); mean over the file's lines of this peptide": 154}
{"binder": "B55", "normalised SPOT signal, Boehringer light units (BLU); mean over the file's lines of this peptide": 47400}
{"binder": "B56", "normalised SPOT signal, Boehringer light units (BLU); mean over the file's lines of this peptide": 265}
{"binder": "B57", "normalised SPOT signal, Boehringer light units (BLU); mean over the file's lines of this peptide": 222}
{"binder": "B58", "normalised SPOT signal, Boehringer light units (BLU); mean over the file's lines of this peptide": 38500}
